Assay [1] concerns the target biotinylated bovine serum albumin (bovine) (UniProt P02769). Description: ellipsometry after affinity microcontact printing from biotinylated BSA stamp (1 mg/ml, 5 h); control.
Assay [2] shares this target. The experiment in a line: ellipsometry after affinity microcontact printing; second use of the biotinylated BSA stamp; control.
The target is the same in assay [3]. The experiment in a line: ellipsometry after affinity microcontact printing; third use of the biotinylated BSA stamp; control.

Sequence of UniProt P02769 (P02769 25-607 limits assumed): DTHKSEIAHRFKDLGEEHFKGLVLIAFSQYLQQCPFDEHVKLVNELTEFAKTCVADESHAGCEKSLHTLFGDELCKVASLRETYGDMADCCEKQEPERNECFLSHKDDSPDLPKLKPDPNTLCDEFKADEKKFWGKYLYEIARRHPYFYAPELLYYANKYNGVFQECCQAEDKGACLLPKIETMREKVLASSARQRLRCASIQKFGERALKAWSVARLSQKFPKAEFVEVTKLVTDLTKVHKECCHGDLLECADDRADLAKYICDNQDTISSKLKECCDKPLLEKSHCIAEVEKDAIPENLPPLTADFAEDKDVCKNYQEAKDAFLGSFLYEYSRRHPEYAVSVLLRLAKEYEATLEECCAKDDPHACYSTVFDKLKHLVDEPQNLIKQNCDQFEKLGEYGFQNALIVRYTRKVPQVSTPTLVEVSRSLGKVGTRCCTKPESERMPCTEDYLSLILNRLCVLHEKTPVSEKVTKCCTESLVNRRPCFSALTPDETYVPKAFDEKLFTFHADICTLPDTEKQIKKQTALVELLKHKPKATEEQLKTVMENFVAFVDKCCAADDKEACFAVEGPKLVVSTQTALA

As for anti-goat IgG (antibody), the change in ellipsometric thickness in assay [1] worked out at 2.3 nm; in assay [2], 1.5 nm; in assay [3], 1.2 nm.
